In patent publication US20240391984A1:

Assays:
[1] = biological target: polyclonal IgG (Gammanorm, Octapharma, Sweden); assay: SPR (Biacore 8K+), variant amine-coupled to CM5, Gammanorm as analyte, steady state fit
[2] = biological target: polyclonal IgG (Gammanorm, Octapharma, Sweden); assay: SPR (Biacore 8K+), variant amine-coupled to CM5, Gammanorm as analyte, 1:1 kinetic fit
[3] = biological target: polyclonal IgG (Gammanorm, Octapharma, Sweden); assay: SPR (Biacore 8K+), variant amine-coupled to CM5, Gammanorm as analyte, steady state fit; remark: listed apart in the source
[4] = biological target: polyclonal IgG (Gammanorm, Octapharma, Sweden); assay: SPR (Biacore 8K+), variant amine-coupled to CM5, Gammanorm as analyte, 1:1 kinetic fit; remark: listed apart in the source

| Binder | Kd [1] [nM] | Kd [2] [nM] | Kd [3] [nM] | Kd [4] [nM] |
| --- | --- | --- | --- | --- |
| pAM115 (B3 domain of Protein L; pos 10 N, pos 45 A, pos 60 N) (designed binder) PKEEVTIKANLIYADGKTQTAEFKGTFEEATAEAYRYADLLAKEAGKYTVDVADKGYTLNIKFAGKEKTPEE |  |  | 51 | 12 |
| pAM132 (B3 domain of Protein L; pos 10 Y, pos 45 N, pos 60 N) (designed binder) PKEEVTIKAYLIYADGKTQTAEFKGTFEEATAEAYRYADLLAKENGKYTVDVADKGYTLNIKFAGKEKTPEE |  |  | 50 | 15 |
| pAM117 (B3 domain of Protein L; pos 10 N, pos 45 N, pos 60 Q) (designed binder) PKEEVTIKANLIYADGKTQTAEFKGTFEEATAEAYRYADLLAKENGKYTVDVADKGYTLQIKFAGKEKTPEE |  |  | 60 | 18 |
| pAM127 (B3 domain of Protein L; pos 10 Q, pos 45 N, pos 60 Y) (designed binder) PKEEVTIKAQLIYADGKTQTAEFKGTFEEATAEAYRYADLLAKENGKYTVDVADKGYTLYIKFAGKEKTPEE |  |  | 62 | 15 |
| pAM120 (B3 domain of Protein L; pos 10 N, pos 45 A, pos 60 Y) (designed binder) PKEEVTIKANLIYADGKTQTAEFKGTFEEATAEAYRYADLLAKEAGKYTVDVADKGYTLYIKFAGKEKTPEE |  |  | 69 | 19 |
| pAM116 (B3 domain of Protein L; pos 10 N, pos 45 H, pos 60 N) (designed binder) PKEEVTIKANLIYADGKTQTAEFKGTFEEATAEAYRYADLLAKEHGKYTVDVADKGYTLNIKFAGKEKTPEE |  |  | 51 | 14 |
| pAM123 (B3 domain of Protein L; pos 10 Q, pos 45 N, pos 60 N) (designed binder) PKEEVTIKAQLIYADGKTQTAEFKGTFEEATAEAYRYADLLAKENGKYTVDVADKGYTLNIKFAGKEKTPEE |  |  | 51 | 13 |
| pAM121 (B3 domain of Protein L; pos 10 N, pos 45 H, pos 60 Q) (designed binder) PKEEVTIKANLIYADGKTQTAEFKGTFEEATAEAYRYADLLAKEHGKYTVDVADKGYTLQIKFAGKEKTPEE |  |  | 76 | 22 |
| pAM124 (B3 domain of Protein L; pos 10 Q, pos 45 A, pos 60 N) (designed binder) PKEEVTIKAQLIYADGKTQTAEFKGTFEEATAEAYRYADLLAKEAGKYTVDVADKGYTLNIKFAGKEKTPEE |  |  | 51 | 12 |
| pAM122 (B3 domain of Protein L; pos 10 N, pos 45 H, pos 60 Y) (designed binder) PKEEVTIKANLIYADGKTQTAEFKGTFEEATAEAYRYADLLAKEHGKYTVDVADKGYTLYIKFAGKEKTPEE |  |  | 89 | 25 |
| pAM126 (B3 domain of Protein L; pos 10 Q, pos 45 N, pos 60 Q) (designed binder) PKEEVTIKAQLIYADGKTQTAEFKGTFEEATAEAYRYADLLAKENGKYTVDVADKGYTLQIKFAGKEKTPEE |  |  | 52 | 16 |
| pAM125 (B3 domain of Protein L; pos 10 Q, pos 45 H, pos 60 N) (designed binder) PKEEVTIKAQLIYADGKTQTAEFKGTFEEATAEAYRYADLLAKEHGKYTVDVADKGYTLNIKFAGKEKTPEE |  |  | 50 | 15 |
| pAM131 (B3 domain of Protein L; pos 10 Q, pos 45 H, pos 60 Y) (designed binder) PKEEVTIKAQLIYADGKTQTAEFKGTFEEATAEAYRYADLLAKEHGKYTVDVADKGYTLYIKFAGKEKTPEE |  |  | 81 | 21 |
| pAM128 (previously disclosed benchmarking Protein L ligand; B3 domain with pos 10 Q, pos 45 A, pos 60 Q) (designed binder) PKEEVTIKAQLIYADGKTQTAEFKGTFEEATAEAYRYADLLAKEAGKYTVDVADKGYTLQIKFAGKEKTPEE |  |  | 60 | 17 |
| pAM130 (B3 domain of Protein L; pos 10 Q, pos 45 H, pos 60 Q) (designed binder) PKEEVTIKAQLIYADGKTQTAEFKGTFEEATAEAYRYADLLAKEHGKYTVDVADKGYTLQIKFAGKEKTPEE |  |  | 57 | 19 |
| pAM119 (B3 domain of Protein L; pos 10 N, pos 45 A, pos 60 Q) (designed binder) PKEEVTIKANLIYADGKTQTAEFKGTFEEATAEAYRYADLLAKEAGKYTVDVADKGYTLQIKFAGKEKTPEE |  |  | 58 | 16 |
| pAM118 (B3 domain of Protein L; pos 10 N, pos 45 N, pos 60 Y) (designed binder) PKEEVTIKANLIYADGKTQTAEFKGTFEEATAEAYRYADLLAKENGKYTVDVADKGYTLYIKFAGKEKTPEE |  |  | 68 | 20 |
| pAM129 (B3 domain of Protein L; pos 10 Q, pos 45 A, pos 60 Y) (designed binder) PKEEVTIKAQLIYADGKTQTAEFKGTFEEATAEAYRYADLLAKEAGKYTVDVADKGYTLYIKFAGKEKTPEE |  |  | 63 | 14 |

The next lines start with the values.

| Kd [1] [nM] | Kd [2] [nM] | Kd [3] [nM] | Kd [4] [nM] | Binder |
| --- | --- | --- | --- | --- |
| 54 | 14 |  |  | pAM253 (Protein L B4 domain; N10H, N45H, N60Y) (designed binder) PKEEVTIKAHLIYADGKTQTAEFKGTFAEATAEAYRYADLLAKEHGKYTADLEDGGYTIYIRFAGKKVDEKPEE |
| 60 | 17 |  |  | pAM239 (Protein L B4 domain; N10H, N45H, N60Q) (designed binder) PKEEVTIKAHLIYADGKTQTAEFKGTFAEATAEAYRYADLLAKEHGKYTADLEDGGYTIQIRFAGKKVDEKPEE |
| 79 | 29 |  |  | pAM249 (Protein L B1 domain; N10H, N45H, N60Y) (designed binder) SEEEVTIKAHLIFANGSTQTAEFKGTFEKATSEAYAYADTLKKDHGEYTVDVADKGYTLYIKFAGKEKTPEE |
| 79 | 15 |  |  | pAM240 (Protein L B5b domain; H, H, Q at positions 10, 45, 60) (designed binder) KEQVTIKEHIYFEDGTVQTATFKGTFAEATAEAYRYADLLSKEHGKYTADLEDGGYTIQIRFAGKEEPEE |
| 43 | 12 |  |  | pAM261 (Protein L C4 domain; N10H, N45H, N60Y) (designed binder) PKEEVTIKVHLIFADGKTQTAEFKGTFEEATAEAYRYADLLAKVHGEYTADLEDGGYTIYIKFAGKEQPGENPG |
| 45 | 17 |  |  | pAM258 (Protein L C2b domain; N10H, N45H, N60Y) (designed binder) PKEEVTIKVHLIFADGKTQTAEFKGTFEEATAKAYAYADLLAKEHGEYTADLEDGGYTIYIKFAGKETPETPEE |
| 50 | 18 |  |  | pAM244 (Protein L C2b domain; N10H, N45H, N60Q) (designed binder) PKEEVTIKVHLIFADGKTQTAEFKGTFEEATAKAYAYADLLAKEHGEYTADLEDGGYTIQIKFAGKETPETPEE |
| 51 | 18 |  |  | pAM260 (Protein L C3b domain; N10H, N45H, N60Y) (designed binder) PKEEVTIKVHLIFADGKIQTAEFKGTFEEATAKAYAYADLLAKEHGEYTADLEDGGYTIYIKFAGKETPETPEE |
| 48 | 11 |  |  | pAM262 (D1 domain; N10H, N45H, N60Y) (designed binder) PKEEVTIKAHLIFADGKTQTAEFKGTFEEATAEAYRYADLLAKVHGEYTADLEDGGYTIYIKFAGKEQPGEN |
| 56 | 16 |  |  | pAM248 (D1 domain; N10H, N45H, N60Q) (designed binder) PKEEVTIKAHLIFADGKTQTAEFKGTFEEATAEAYRYADLLAKVHGEYTADLEDGGYTIQIKFAGKEQPGEN |
|  |  | 75 |  | pAM179 (D1 domain; pos 10 Y, pos 45 H, pos 60 Y) (designed binder) PKEEVTIKAYLIFADGKTQTAEFKGTFEEATAEAYRYADLLAKVHGEYTADLEDGGYTIYIKFAGKEQPGEN |
|  |  | 96 | 27 | pAM140 (B3 domain of Protein L; pos 10 Y, pos 45 H, pos 60 Y) (designed binder) PKEEVTIKAYLIYADGKTQTAEFKGTFEEATAEAYRYADLLAKEHGKYTVDVADKGYTLYIKFAGKEKTPEE |
|  |  | 77 | 19 | pAM136 (B3 domain of Protein L; pos 10 Y, pos 45 N, pos 60 Y) (designed binder) PKEEVTIKAYLIYADGKTQTAEFKGTFEEATAEAYRYADLLAKENGKYTVDVADKGYTLYIKFAGKEKTPEE |
| 69 | 16 |  |  | pAM252 (Protein L B3 domain; N10H, N45H, N60Y) (designed binder) PKEEVTIKAHLIYADGKTQTAEFKGTFEEATAEAYRYADLLAKEHGKYTVDVADKGYTLYIKFAGKEKTPEE |
| 72 | 27 |  |  | pAM237 (Protein L B2 domain; N10H, N45H, N60Q) (designed binder) PKEEVTIKAHLIYADGKTQTAEFKGTFEEAAAEAYRYADALKKDHGEYTVDVADKGYTLQIKFAGKEKTPEE |
|  |  | 64 | 18 | pAM137 (B3 domain of Protein L; pos 10 Y, pos 45 A, pos 60 Q) (designed binder) PKEEVTIKAYLIYADGKTQTAEFKGTFEEATAEAYRYADLLAKEAGKYTVDVADKGYTLQIKFAGKEKTPEE |
| 55 | 20 |  |  | pAM251 (Protein L B2 domain; N10H, N45H, N60Y) (designed binder) PKEEVTIKAHLIYADGKTQTAEFKGTFEEAAAEAYRYADALKKDHGEYTVDVADKGYTLYIKFAGKEKTPEE |
|  |  | 46 | 13 | pAM133 (B3 domain of Protein L; pos 10 Y, pos 45 A, pos 60 N) (designed binder) PKEEVTIKAYLIYADGKTQTAEFKGTFEEATAEAYRYADLLAKEAGKYTVDVADKGYTLNIKFAGKEKTPEE |
|  |  | 71 | 22 | pAM139 (B3 domain of Protein L; pos 10 Y, pos 45 H, pos 60 Q) (designed binder) PKEEVTIKAYLIYADGKTQTAEFKGTFEEATAEAYRYADLLAKEHGKYTVDVADKGYTLQIKFAGKEKTPEE |
|  |  | 55 | 18 | pAM134 (B3 domain of Protein L; pos 10 Y, pos 45 H, pos 60 N) (designed binder) PKEEVTIKAYLIYADGKTQTAEFKGTFEEATAEAYRYADLLAKEHGKYTVDVADKGYTLNIKFAGKEKTPEE |
|  |  | 61 | 17 | pAM135 (B3 domain of Protein L; pos 10 Y, pos 45 N, pos 60 Q) (designed binder) PKEEVTIKAYLIYADGKTQTAEFKGTFEEATAEAYRYADLLAKENGKYTVDVADKGYTLQIKFAGKEKTPEE |
|  |  | 73 | 18 | pAM138 (B3 domain of Protein L; pos 10 Y, pos 45 A, pos 60 Y) (designed binder) PKEEVTIKAYLIYADGKTQTAEFKGTFEEATAEAYRYADLLAKEAGKYTVDVADKGYTLYIKFAGKEKTPEE |
